In this assay the target is SARS-CoV-2 S trimer (stabilized S ectodomain, residues 1-1208, proline substitutions at 986 and 987, GSAS at … (SARS-CoV-2, Wuhan-Hu-1, proline substitution at residue 986 | proline substitution at residue 987 | …, biotin (EZ-Link Sulfo-NHS-LC-LC-Biotin) in the BLI experiments; not labelled for cryo-EM). Nature of the assay: BLI. Particulars: both partners purified.

B1: human-mouse chimeric antibody 3C1 (c3C1) (antibody, V domains shown)
VH: EVQLQESGPSLVKPSQTLSLTCSVTGDSITNGYWNWIRKFPGNKLEYMGYISYSGSTYYSPSLKSRISITRDTSKNQHYLQLNSVTSEDTATYYCASDYHGSKYYFDYWGQGTTLTVSS
VL: DIVMTQSHKFMSTSVGHRVSITCKASQDVGNDVAWYQQKPGQSPKLLIYWASTRHTGVPDRFTGSGSGTDFTLTISNVQSEDLADYFCQQYNRYPYTFGGGTKLEIK
notes: also called chimeric MAb c3C1
As to B1, the Kd (as a rule, a measure of binding affinity in units of concentration) was less than 1 pM.

For the origin of these results see publication PMC7801428 (Nature Communications, 2021).
